The values below come from paper PMC11043367.

Assay [1] has as its target human parechovirus 1 (PeV-A1) particles, Harris strain. Kind of assay: co-immunoprecipitation with anti-HA beads, RT-qPCR of viral RNA. The following applies: IP, read off a plot. On the technique in general: Real-time PCR tracks product formation cycle by cycle.
Assay [2] addresses T1, Flag-tagged PeV-A1 virus particles.
T1 chain 1: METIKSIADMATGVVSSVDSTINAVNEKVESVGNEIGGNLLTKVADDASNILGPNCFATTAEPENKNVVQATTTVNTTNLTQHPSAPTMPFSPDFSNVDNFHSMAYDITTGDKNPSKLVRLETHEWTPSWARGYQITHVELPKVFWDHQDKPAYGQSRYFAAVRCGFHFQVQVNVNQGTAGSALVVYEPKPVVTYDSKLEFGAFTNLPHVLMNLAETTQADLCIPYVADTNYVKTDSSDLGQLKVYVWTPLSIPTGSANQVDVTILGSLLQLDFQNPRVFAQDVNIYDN
T1 chain 2: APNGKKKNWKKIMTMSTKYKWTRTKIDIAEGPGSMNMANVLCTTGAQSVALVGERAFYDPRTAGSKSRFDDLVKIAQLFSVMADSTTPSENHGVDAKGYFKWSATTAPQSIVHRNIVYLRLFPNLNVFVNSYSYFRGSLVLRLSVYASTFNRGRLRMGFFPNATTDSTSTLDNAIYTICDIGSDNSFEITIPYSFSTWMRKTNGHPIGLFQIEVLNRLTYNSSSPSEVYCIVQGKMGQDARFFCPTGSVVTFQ
T1 chain 3: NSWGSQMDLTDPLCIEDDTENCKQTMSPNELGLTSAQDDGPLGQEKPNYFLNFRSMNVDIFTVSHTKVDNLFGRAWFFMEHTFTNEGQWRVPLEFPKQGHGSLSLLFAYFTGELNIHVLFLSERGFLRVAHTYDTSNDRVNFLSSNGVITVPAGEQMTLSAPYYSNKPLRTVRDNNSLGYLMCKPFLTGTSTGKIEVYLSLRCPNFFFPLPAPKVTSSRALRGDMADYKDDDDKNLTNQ
Kind of assay: pH-dependent virus particle binding assay (anti-HA immunoprecipitation), RT-qPCR of viral RNA. Particulars: chain shown with the change, read off a plot.

Turning to “human MYADM (myeloid-associated differentiation marker), HA-tagged (from UniProt Q96S97) D276E; V277H; S278N”, the response (relative to Vero) in assay [1] (0 min after infection, parent: est. 25) was 5; in assay [1] (15 min after infection, 37 °C, parent: est. 52), 1.5; in assay [1] (30 min after infection, 37 °C, parent: est. 60) it was 5.

B1: human MYADM (myeloid-associated differentiation marker), HA-tagged, Q96S97 D276E; V277H; S278N (protein)
chain: MPVTVTRTTITTTTTSSSGLGSPMIVGSPRALTQPLGLLRLLQLVSTCVAFSLVASVGAWTGSMGNWSMFTWCFCFSVTLIILIVELCGLQARFPLSWRNFPITFACYAALFCLSASIIYPTTYVQFLSHGRSRDHAIAATFFSCIACVAYATEVAWTRARPGEITGYMATVPGLLKVLETFVACIIFAFISDPNLYQHQPALEWCVAVYAICFILAAIAILLNLGECTNVLPIPFPSFLSGLALLSVLLYATALVLWPLYQFDEKYGGQPRRSREHNCSRSHAYYVCAWDRRLAVAILTAINLLAYVADLVHSAHLVFVKV
Turning to B1, the response (relative to Vero) is 1 in assay [2] (virus particle IP buffer pH 5.5, parent: est. 3.0); 1 in assay [2] (virus particle IP buffer pH 6.0, parent: est. 6.2); 1 in assay [2] (virus particle IP buffer pH 6.5, parent: est. 5.3); 1.1 in assay [2] (virus particle IP buffer pH 7.4, parent: est. 1.1).
